T1: monomeric human CTLA-4 (human, UniProt P16410 36-161, limits assumed)
T1 construct: Soluble monomeric analyte in SPR; also called huCTLA-4
T1 sequence: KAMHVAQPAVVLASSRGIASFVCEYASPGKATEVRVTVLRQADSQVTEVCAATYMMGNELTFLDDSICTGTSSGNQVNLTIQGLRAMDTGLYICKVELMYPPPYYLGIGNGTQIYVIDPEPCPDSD


Columns and labels:
[1] = target: T1, monomeric human CTLA-4; experiment: SPR, captured Fab, pH 6.0 vs 7.4
Protocol: (§1) Binding of selected variants to human CTLA-4 was determined essentially as described in Example 3. […] Nomenclature and sequences for these antibodies is provided at Tables 6 and 7, and in the sequence listing as summarized at Table 8.
(§2) Monomeric human CTLA-4 was flowed as analyte with up to 2 μM top concentration. Between cycles, the capture surface was regenerated with 75 mM phosphoric acid. Experiments were run on a BIACORE® T200 instrument at 37° C. Running buffers were HEPES buffered saline for pH 7.4 experiments and Bis-Tris buffered saline for lower pH experiments. […] Double referenced sensorgrams were fitted to a 1:1 Langmuir binding model with mass transport to determine equilibrium dissociation constants (KD), as well as association (kₐ) and dissociation (kd) rate constants where appropriate.

[2] = target: T1, monomeric human CTLA-4; experiment: SPR, captured Fab, pH 6.0
Protocol: as §1, §2

[3] = target: T1, monomeric human CTLA-4; experiment: SPR, captured Fab, pH 7.4
Protocol: as §1, §2

Row | Binder | KD 7.4/6 (APBP) [1] | Kd [2] [nM] | kon [2] [M⁻¹ s⁻¹] | t1/2 [2] [s] | Kd [3] [nM] | ka 6/7.4 [1] | t1/2 6/7.4 [1] | kon [3] [M⁻¹ s⁻¹] | t1/2 [3] [s]
1 | ipi.69 Fab (Fab, V domains shown, Tested as monovalent Fab) VH: QVQLVESGGGVVQPGRSLRLSCAASGFTFSHYTMHWVRQAPGKGLEWVTFISYDGHNKYYADSVKGRFTISRDNSKNTLYLQMNSLRAEDTAIYYCARTGWLGPFDYWGQGTLVTVSS VL: not shown | 6.3 | 4.4 | 1.1e+06 | 144 | 28 | 1.3 | 4.7 | 820000 | 30
2 | ipi.7 Fab (Fab, V domains shown, Tested as monovalent Fab) VH: QVQLVESGGGVVQPGRSLRLSCAASGFTFSSYHMHWVRQAPGKGLEWVTFISYDGNHKYYADSVKGRFTISRDNSKNTLYLQMNSLRAEDTAIYYCARTGWLGPFDYWGQGTLVTVSS VL: not shown | 0.8 | 1.7 | 1.2e+06 | 347 | 1.5 | 1.1 | 0.7 | 1e+06 | 462
3 | ipi.20 Fab (Fab, V domains shown, Tested as monovalent Fab) VH: QVQLVESGGGVVQPGRSLRLSCAASGFTFSSYTMHWVRQAPGKGLEWVTFISYDGNNKYYADSVKGRFTISRDNSKNTLYLQMNSLRAEDTAIYYCARTGWLGPFDYWGQGTLVTVSS VL: not shown | 2.6 | 32 | 1.6e+06 | 14 | 84 | 2 | 1.3 | 790000 | 11

Now from value to binder:

Row | KD 7.4/6 (APBP) [1] | Kd [2] [nM] | kon [2] [M⁻¹ s⁻¹] | t1/2 [2] [s] | Kd [3] [nM] | ka 6/7.4 [1] | t1/2 6/7.4 [1] | kon [3] [M⁻¹ s⁻¹] | t1/2 [3] [s] | Binder
4 | 4.4 | 31 | 1.4e+06 | 16 | 130 |  |  |  |  | ipi.82 Fab (Fab, V domains shown, Tested as monovalent Fab) VH: QVQLVESGGGVVQPGRSLRLSCAASGFTFSHYTMHWVRQAPGKGLEWVTFISYDGNNKYYADSVKGRFTISRDNSKNTLYLQMNSLRAEDTAIYYCARHGWLGPFDYWGQGTLVTVSS VL: not shown
5 | 15 | 12 | 1.6e+06 | 36 | 180 |  |  |  |  | ipi.86 Fab (Fab, V domains shown, Tested as monovalent Fab) VH: QVQLVESGGGVVQPGRSLRLSCAASGFTFSHYTMHWVRQAPGKGLEWVTFISYDGNNKYYADSVKGRFTISRDNSKNTLYLQMNSLRAEDTAIYYCARHGWLGPFDYWGQGTLVTVSS VL: not shown
6 | 25 | 1.6 | 1.5e+06 | 289 | 39 | 2 | 12.2 | 740000 | 24 | ipi.71 Fab (Fab, V domains shown, Tested as monovalent Fab) VH: QVQLVESGGGVVQPGRSLRLSCAASGFTFSHYTMHWVRQAPGKGLEWVTFISYDGHNKYYADSVKGRFTISRDNSKNTLYLQMNSLRAEDTAIYYCARTGWLGPFDYWGQGTLVTVSS VL: not shown
7 | 7.7 | 16 | 1.3e+06 | 35 | 120 |  |  |  |  | ipi.84 Fab (Fab, V domains shown, Tested as monovalent Fab) VH: QVQLVESGGGVVQPGRSLRLSCAASGFTFSHYTMHWVRQAPGKGLEWVTFISYDGHNKYYADSVKGRFTISRDNSKNTLYLQMNSLRAEDTAIYYCARHGWLGPFDYWGQGTLVTVSS VL: not shown
8 | 16 | 13 | 1.7e+06 | 32 | 210 |  |  |  |  | ipi.93 Fab (Fab, V domains shown, Tested as monovalent Fab) VH: QVQLVESGGGVVQPGRSLRLSCAASGFTFSSYTMHWVRQAPGKGLEWVTFISYDGNNKYYADSVKGRFTISRDNSKNTLYLQMNSLRAEDTAIYYCARTGWLGPFDYWGQGTLVTVSS VL: EIVLTQSPGTLSLSPGERATLSCRASQEVGDSELAWYQQKPGQAPRLLIYGAFSRATGIPDRFSGSGSGTDFTLTISRLEPEDFAVYYCQQYGSSPWTFGQGTKVEIKR

From patent US20220193237A1 (Bristol-Myers Squibb, published 2022)
